For data set [1], the system named is MS2 coat protein. As to the kind of experiment: apparent KD of MS2 coat protein, switch OFF state (with FMN for OFF switches, without FMN for ON switches); designed switch direction (-1 OFF switch, 1 ON switch): -1; higher = weaker reporter binding. Particulars: FMN input: 0 or 200 uM; Eterna round: R93 (includes R88 designs). In outline:
(§1)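 For every design, apparent KD is the median of normalised binding-curve fits from its clusters. The RNA switches were transcribed on-chip from Illumina sequencing clusters and titrated with SNAP-549-labelled MS2 coat protein (twofold steps, 0.7 or 1.5 nM to 3 µM; 0.8–1.5 h to 10–20 min per step). Titrations used 100 mM Tris-HCl pH 7.5, 80 mM KCl, 4 mM MgCl2, without or with constant ligand.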

The test system of data set [2] is MS2 coat protein. Briefly: apparent KD of MS2 coat protein, switch ON state; designed switch direction (-1 OFF switch, 1 ON switch): -1; higher = weaker reporter binding. The following applies: FMN input: 0 or 200 uM; Eterna round: R93 (includes R88 designs). In short, it runs like this:
as §1

In the case of “AAAUUGUCAGGAUAUCCAGCUAUACGAAAUAUAUAUACACGGGAGAAGGGACAUGAGGAUCACCCAUGUUUGAA [JR_Exc004_Sub702]”, the figures for the “apparent KD of MS2 coat protein” value with MS2 coat protein [1] and in the data set on MS2 coat protein [2] were 27.6 nM and 34 nM, respectively.
As for “AAAUUGUCAGGAUAUCCUAUAAUAAUAAAAUAGAGGAGAUAGGAGAAGGGACAUGAGGAUCACCCAUGUAAAAC [May 85]”, the “apparent KD of MS2 coat protein” value in the data set with MS2 coat protein [1] worked out at 31.2 nM; with MS2 coat protein [2] it was 37.7 nM.
For the sequence “AAAUUGUGAGGAUAUCUGGAUAGGAAAAAGAAAACCUAUCCAGAGAAGGCACAUGAGGAUCACCCAUGUAAAAA [JL cataway mod 5]”, the “apparent KD of MS2 coat protein” value with MS2 coat protein [1] stood at 96.8 nM; with MS2 coat protein [2], 61.7 nM.
The matching figures for “AACAAACAUGAGGAUCACCCAUGUCAGGAUAUGCAAAUAACAAACAACAAACAACAAAGCAGAAGGGACGACAA [Mat - Exclusion 1 - Eli mod - D51]”: 25.6 nM and 22.1 nM.
Taken in the same sequence, the figures for “AACAAACAUGAGGAUCACCCAUGUCAGGAUAUGCAAAUAACAAACAACAAACAACAAAGCAGAAGGGAUAGGAA [Mat - Exclusion 1 - Eli mod - D52]” were 21.2 nM and 23.3 nM.
Take “AACAAGUCAGGAUAUGUUAAAGGUUACGAAAGGGAUAAAGGGCAGAAGGGACAUGAGGAUCACCCAUGUAAUAA [And All that Jazx]”: the “apparent KD of MS2 coat protein” value with MS2 coat protein [1] turned out to be 38.2 nM; in the data set on MS2 coat protein [2] it was 48 nM.
Turning to “AACAAGUCAGGAUAUUCGAAAAGUAAAUAAGUAAAACAAAAGAAGAAGGGACAUGAGGAUCACCCAUGUAAAUA [JR_Exc004_Sub016]”, the “apparent KD of MS2 coat protein” value was 27.9 nM with MS2 coat protein [1] and 46.1 nM with MS2 coat protein [2].
The matching figures for “AACAAGUGAGGAUAUCGGAAAAGUAAAUAAGUAAAACAAAACGAGAAGGCACAUGAGGAUCACCCAUGUAAAUA [JR_Exc004_Sub014]”: 17.4 nM and 17 nM.
The matching figures for “AACAGGUUAGGAUAUGUGUAACAAAUAAAAAAAAUAUAAACACAGAAGGAACAUGAGGAUCACCCAUGUUAACA [May 28]”: 17 nM and 24.4 nM.
Taken in the same sequence, the figures for “AACAGUACAGGAUAUACAUGAGGAUCACCCAUGUAAAAAUAAUAAAAGGGCUCAAAAAGUAGAAGGGUACUGGA [Moding Maslow revisited (73) 15]” were 66.3 nM and 31.2 nM.
With “AACAGUACAGGAUAUACAUGAGGAUCACCCAUGUCACAACAAAGCAGCGCAACACAAAGUAGAAGGGUAAUGGA [Ruby 15]”, the entries for the “apparent KD of MS2 coat protein” value in the data set on MS2 coat protein [1] and in the data set on MS2 coat protein [2] were 40.4 nM and 34.6 nM, respectively.
As to “AACAGUACAGGAUAUACAUGAGGAUCACCCAUGUGAAAAUAAAGUGGCGUACCACAAAGUAGAAGGGUACUGAA [Mat - Exclusion 3 - JL mod - D26]”, the “apparent KD of MS2 coat protein” value in the data set with MS2 coat protein [1] was determined as 124 nM; with MS2 coat protein [2], 26.7 nM.
In the case of “AACAGUACAGGAUAUACAUGAGGAUCACCCAUGUGAAAAUAAAGUGGCGUACCACGAAGUAGAAGGGUACUGGA [Ruby 58]”, the “apparent KD of MS2 coat protein” value turned out to be 72.5 nM in the data set on MS2 coat protein [1] and 21.1 nM in the data set on MS2 coat protein [2].
The matching figures for “AACAGUACAGGAUAUACAUGAGGAUCACCCAUGUGAAAAUUAAGUGGAGAACCACAAGGUAGAAGGGUACUGGA [Mat - Exclusion 3 - Eli mod - D62]”: 127 nM and 42.4 nM.
Taken in the same sequence, the figures for “AACAGUACAGGAUAUACAUGAGGAUCACCCAUGUGAAAAUUAAGUGGGAGACCACAAAGUAGAAGGGUACUGAA [Mat - Exclusion 3 - Eli mod - D60]” were 62.3 nM and 126 nM.
Regarding “AACAGUACAGGAUAUACAUGAGGAUCACCCAUGUGAACUUCAAGUGCCGUAGCACGAAGUAGAAGGGUACUGGA”, the “apparent KD of MS2 coat protein” value in the data set with MS2 coat protein [1] came out at 497 nM; with MS2 coat protein [2] it was 63.4 nM.
“AACAGUACAGGAUAUACAUGAGGAUCACCCAUGUGAGAAUUAAGCAGCGUAACACAAAGUAGAAGGGUAAUGGA [Ruby 19]”: the “apparent KD of MS2 coat protein” value with MS2 coat protein [1] came to 43.9 nM; in the data set on MS2 coat protein [2] it was 39.9 nM.
The matching figures for “AACAGUACAGGAUAUACAUGAGGAUCACCCAUGUGAGAAUUAAGUGGAAAACCACAAAGUAGAAGGGUACUGGA [Mat - Exclusion 3 - JL mod - D3]”: 234 nM and 26.6 nM.
The matching figures for “AACAGUACAGGAUAUACAUGAGGAUCACCCAUGUGAGAAUUAAGUGGCGAACCACAAAGUAGAAGGGUACUGGA [Mat - Exclusion 3 - JL mod - D1]”: 469 nM and 43.1 nM.
Consider “AACAGUACAGGAUAUACAUGAGGAUCACCCAUGUGAGAAUUUAGCAGCGUAACACACAGUAGAAGGGUAAUGGA [Ruby 21]”, for which the “apparent KD of MS2 coat protein” value is 39.3 nM in the data set with MS2 coat protein [1] and 45.4 nM in the data set on MS2 coat protein [2].
Taken in the same sequence, the figures for “AACAUGUAAGGAUAUCUAAGAAAAGAAAAGAAAGAAAAGAAAGAGAAGGUACAUGAGGAUCACCCAUGUAAGAA [EteRNA is fun!]” were 18.3 nM and 32.7 nM.
Regarding “AACAUGUGAGGAUAUAUAAGAAAAGAAAAGAAAGAAAAGAAAUAGAAGGCACAUGAGGAUCACCCAUGUAAGAA [EteRNA is fun!]”, the entries for the “apparent KD of MS2 coat protein” value in the data set on MS2 coat protein [1] and with MS2 coat protein [2] were 26.2 nM and 30 nM, respectively.
Take “AACGUACAUGAGGAUCACCCAUGUUAGGAUAUGCCGGGUUAGAGCCAACUAAAAAACCGUAGAAGGGACGAAAA [Bilbo Confounded 11 - Jieux - Exclusion 1]”: the “apparent KD of MS2 coat protein” value in the data set with MS2 coat protein [1] came out at 30.2 nM; in the data set with MS2 coat protein [2], 27.6 nM.
As for “AACUGACAUGAGGAUCACCCAUGUCAGGAUAUGAUAUGUAAAAAAAAAAAAAUACUUAUCAGAAGGGACAUGGA [Design 42: Sub-opt BB]”, the “apparent KD of MS2 coat protein” value with MS2 coat protein [1] is 30 nM; with MS2 coat protein [2], 22.8 nM.
The matching figures for “AACUGACAUGAGGAUCACCCAUGUCAGGAUAUGAUAUGUAAAAAAUAAAAAAUACUUAUCAGAAGGGACAUGAA [Design 43: Sub-opt C]”: 14.4 nM and 15.8 nM.
Taken in the same sequence, the figures for “AAGAAACAUGAGGAUCACCCAUGUCAGGAUAUCCAAGAAAGAAAGAAAGAAAGAAGAAGGAGAAGGGACAAAGG [Lucius Antonius Pedo]” were 67.3 nM and 64.8 nM.
Turning to “AAGAAACAUGAGGAUCACCCAUGUGAGGAUAUGGAAGAAAGAAAGAAAGAAAGAAGAACCAGAAGGCACAAAGG [Publius Rubrius Barbarus]”, the “apparent KD of MS2 coat protein” value stood at 105 nM in the data set on MS2 coat protein [1] and 144 nM in the data set with MS2 coat protein [2].
Regarding “AAGAAACUAGGAUAUACAAGGAAGAAAGAAAAGAAAAGAAAACAUGAGGAUCACCCAUGUAGAAGGAGUUAGAA [EteRNA is fun!]”, the figures for the “apparent KD of MS2 coat protein” value in the data set on MS2 coat protein [1] and with MS2 coat protein [2] were 31.3 nM and 36.3 nM, respectively.
Taken in the same sequence, the figures for “AAGAACAUAGGAUAUACAAGGAAGAAAGAAAAGAAAAGAAAACAUGAGGAUCACCCAUGUAGAAGGAUGUAGAA [EteRNA is fun!]” were 24.8 nM and 24.4 nM.
Consider “AAGAACCUAGGAUAUACUUGGGUAACUAAUAAACUGAUAUAACAUGAGGAUCACCCAUGUAGAAGGAGGAGAAA [JR_Exc002_Sub204]”, for which the “apparent KD of MS2 coat protein” value in the data set on MS2 coat protein [1] worked out at 62.4 nM; in the data set with MS2 coat protein [2] it was 50.1 nM.
As for “AAGAACGGAGGAUAUACAUGAGGAUCACCCAUGUAAAAGAAAGAGGGAAAAGAGAAAAGUAGAAGGCCGAAGAA [Haaibre Alexander IV]”, the figures for the “apparent KD of MS2 coat protein” value in the data set on MS2 coat protein [1] and with MS2 coat protein [2] were 60.3 nM and 28 nM, respectively.
For “AAGAACUCAGGAUAUACAAAAUAAAAGAAAAGAAAGAAAGAACAUGAGGAUCACCCAUGUAGAAGGGAGAAGAA [Sobekkare Sobekneferu]”, the “apparent KD of MS2 coat protein” value was 32.4 nM with MS2 coat protein [1] and 61.2 nM in the data set with MS2 coat protein [2].
As for “AAGAACUCAGGAUAUACAUGAGGAUCACCCAUGUAAAAGAAAGAAGGGAAAGAGAAAAGUAGAAGGGAGAAGAA [Niumateped]”, the results for the “apparent KD of MS2 coat protein” value in the data set on MS2 coat protein [1] and with MS2 coat protein [2] were 23.8 nM and 17.5 nM, respectively.
For the sequence “AAGAAGACAGGAUAUACAUGAGGAUCACCCAUGUAAAAGAAAGAAAGGGAAAAGAAAAGUAGAAGGGUCAAGAA [Khepermaatre-setpenptah Ramesses X]”, the entries for the “apparent KD of MS2 coat protein” value with MS2 coat protein [1] and in the data set on MS2 coat protein [2] were 51.4 nM and 37.6 nM, respectively.
The matching figures for “AAGAAGCGAGGAUAUACAUGAGGAUCACCCAUGUAAAAGAAAGAAAAGGGAAAGAAAAGUAGAAGGCGCAAGAA [Nebpehtire Ahmose I, Ahmosis I]”: 177 nM and 53 nM.
Taken in the same sequence, the figures for “AAGAAGGCAGGAUAUACAUGAAAGAAAGAAAAGAAAAGAAAACAUGAGGAUCACCCAUGUAGAAGGGCCAAGAA [EteRNA is fun!]” were 109 nM and 29.8 nM.
In the case of “AAGAAGGUAGGAUAUACAUGAGGAUCACCCAUGUAAAAGAAAGAAGGGAAAGAGAAAAGUAGAAGGACCAAGAA [Rudamon]”, the “apparent KD of MS2 coat protein” value with MS2 coat protein [1] turned out to be 55.3 nM; in the data set with MS2 coat protein [2], 33.4 nM.
For the sequence “AAGAAGUCAGGAUAUGCGAAGGCGUCUGAUAGACGAGGCUAGCAGAAGGGACAUGAGGAUCACCCAUGUAAAGA [Mat - Exclusion 4 - D83]”, the “apparent KD of MS2 coat protein” value was 55 nM in the data set with MS2 coat protein [1] and 45 nM with MS2 coat protein [2].
As for “AAGAAGUCAGGAUAUGCUAAAGAAAUAAAAAGAAAGAAAGAACAUGAGGAUCACCCAUGUAGAAGGGACAAGAA [Seheqenre Sankhptahi]”, the figures for the “apparent KD of MS2 coat protein” value with MS2 coat protein [1] and in the data set with MS2 coat protein [2] were 38.9 nM and 72.9 nM, respectively.
As for “AAGAAGUCAGGAUAUGCUGAUAGUAAAUUGAGUGAUGAGUAGCAGAAGGGACAUGAGGAUCACCCAUGUAAAGA [Opal 12]”, the results for the “apparent KD of MS2 coat protein” value in the data set on MS2 coat protein [1] and in the data set with MS2 coat protein [2] were 32.6 nM and 45.4 nM, respectively.

For the origin of these results see the supplement of paper PMC9170038.
